Each block holds one substance with its values, some of them ahead of it.
Columns and labels:
[1] = biological target: BgaA β-galactosidase (Bbr_0010) (B. breve UCC2003); assay: SEC-MALS; Superose 6 10/300 G/L, 50 mM Tris-HCl, 150 mM NaCl, pH 7.5, 0.5 mL/min; dual-angle light scattering (RALS/LALS) and refractometer (OmniSec REVEAL); protein concentrations in Supplementary Table 1; native mass compared with the calculated monomer mass (with His-tag)
[2] = biological target: BgaB β-galactosidase (Bbr_0529) (B. breve UCC2003); assay: as above
[3] = biological target: BgaG β-galactosidase (Blon_2016) (B. longum subsp. infantis ATCC 15697); assay: as above
[4] = biological target: BgaC β-galactosidase (B216_08266) (B. bifidum LMG 13195); assay: as above
[5] = biological target: BgaD β-galactosidase (B8809_0415) (B. longum subsp. longum NCIMB 8809); assay: as above
[6] = tested on: O=[N+]([O-])c1ccccc1O[C@@H]1O[C@H](CO)[C@H](O)[C@H](O)[C@H]1O; assay: o-nitrophenol release, A420; format: biochemical, Bifidobacterium longum subsp. longum; conditions: 0.1 M sodium acetate pH 6.5, 40 °C, unit mM, not in table
Description: o-nitrophenol release, A420 on BgaF

[7] = biological target: BgaE β-galactosidase (B8809_0611) (B. longum subsp. longum NCIMB 8809); assay: SEC-MALS; Superose 6 10/300 G/L, 50 mM Tris-HCl, 150 mM NaCl, pH 7.5, 0.5 mL/min; dual-angle light scattering (RALS/LALS) and refractometer (OmniSec REVEAL); protein concentrations in Supplementary Table 1; native mass compared with the calculated monomer mass (with His-tag)

Substance: BgaG β-galactosidase (Blon_2016) (enzyme)
stoichiometry N [3]: 3

Substance: BgaD β-galactosidase (B8809_0415) (enzyme)
stoichiometry N [5]: 3

Substance: BgaF (Bifidobacterium longum subsp. longum)
Km [6]: 5.178 mM

Substance: BgaE β-galactosidase (B8809_0611) (enzyme)
stoichiometry N [7]: 4

Further lines, results first:

stoichiometry N [1]: 2
Substance: BgaA β-galactosidase (Bbr_0010) (enzyme)

stoichiometry N [2]: 3
Substance: BgaB β-galactosidase (Bbr_0529) (enzyme)

stoichiometry N [4]: 3
Substance: BgaC β-galactosidase (B216_08266) (enzyme)

From paper PMC8126724, “Infant-Associated Bifidobacterial β-Galactosidases and Their Ability to Synthesize Galacto-Oligosaccharides” (Frontiers in Microbiology, 2021)
